Test results reported in US7067277B1, “Chimeric G proteins and uses thereof” (H. Lundbeck A/S, priority 1999, dated 2006).
Residue numbers refer to the chain shown, from its start.

T1: r GALR2 (Rattus norvegicus, UniProt O08726)
T1 construct: expressed in transfected cells; host or cells: COS-7
T1 sequence (O08726 1-372): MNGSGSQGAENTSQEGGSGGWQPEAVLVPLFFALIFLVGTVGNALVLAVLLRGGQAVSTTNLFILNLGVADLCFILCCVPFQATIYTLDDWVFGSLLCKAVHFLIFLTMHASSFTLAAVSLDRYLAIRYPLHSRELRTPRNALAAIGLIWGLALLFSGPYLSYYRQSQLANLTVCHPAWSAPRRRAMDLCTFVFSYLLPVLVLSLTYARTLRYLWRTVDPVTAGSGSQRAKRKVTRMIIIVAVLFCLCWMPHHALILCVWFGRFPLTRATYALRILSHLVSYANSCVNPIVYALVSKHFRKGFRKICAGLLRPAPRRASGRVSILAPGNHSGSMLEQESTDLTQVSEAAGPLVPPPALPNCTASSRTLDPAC

T2: h α2A adr (Homo sapiens, UniProt P08913)
T2 construct: expressed in transfected cells; host or cells: COS-7
T2 sequence (P08913 1-465): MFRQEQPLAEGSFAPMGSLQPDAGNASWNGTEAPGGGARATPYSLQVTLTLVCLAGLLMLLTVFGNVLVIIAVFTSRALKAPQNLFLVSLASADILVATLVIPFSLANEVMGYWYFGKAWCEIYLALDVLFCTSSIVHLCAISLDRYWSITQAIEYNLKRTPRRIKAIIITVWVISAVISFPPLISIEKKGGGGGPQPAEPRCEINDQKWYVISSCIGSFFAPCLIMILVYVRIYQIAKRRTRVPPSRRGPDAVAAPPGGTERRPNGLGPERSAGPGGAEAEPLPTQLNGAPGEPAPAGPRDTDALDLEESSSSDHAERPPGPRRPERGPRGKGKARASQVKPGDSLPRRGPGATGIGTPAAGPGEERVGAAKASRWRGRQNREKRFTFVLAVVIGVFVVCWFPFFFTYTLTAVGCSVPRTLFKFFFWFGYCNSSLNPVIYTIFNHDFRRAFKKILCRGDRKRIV

T3: h α1A adr (Homo sapiens, UniProt P35348)
T3 construct: expressed in transfected cells; host or cells: COS-7
T3 sequence (P35348 1-466): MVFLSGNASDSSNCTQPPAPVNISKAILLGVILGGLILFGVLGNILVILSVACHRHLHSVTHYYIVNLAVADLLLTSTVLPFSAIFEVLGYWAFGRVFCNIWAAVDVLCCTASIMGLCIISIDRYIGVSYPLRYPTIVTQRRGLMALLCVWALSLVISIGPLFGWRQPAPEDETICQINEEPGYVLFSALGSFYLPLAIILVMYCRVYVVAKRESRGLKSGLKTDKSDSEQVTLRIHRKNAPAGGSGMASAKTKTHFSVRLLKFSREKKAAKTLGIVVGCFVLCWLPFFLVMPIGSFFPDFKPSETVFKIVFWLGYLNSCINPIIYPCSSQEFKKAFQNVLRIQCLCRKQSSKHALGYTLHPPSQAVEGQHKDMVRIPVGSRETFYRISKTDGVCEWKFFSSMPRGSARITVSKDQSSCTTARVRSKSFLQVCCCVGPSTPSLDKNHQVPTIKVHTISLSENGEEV

B1: cGαq/z5: chimeric Gα subunit: C-terminal final 5 amino acids of C. elegans Gαq replaced with those of hGαz (SEQ ID NO: 1) (protein)
chain: MACCLSEEAREQKRINQEIEKQLQRDKRNARRELKLLLLGTGESGKSTFIKQMRIIHGQGYSEEDKRAHIRLVYQNVFMAIQSMIRAMDTLDIKFGNESEELQEKAAVVREVDFESVTSFEEPYVSYIKELWEDSGIQECYDRRREYQLTDSAKYYLSDLRRLAVPDYLPTEQDILRVRVPTTGIIEYPFDLEQIIFRMVDVGGQRSERRKWIHCFENVTSIMFLVALSEYDQVLVECDNENRMEESKALFRTIITYPWFTNSSVILFLNKKDLLEEKILYSHLADYFPEYDGPPRDPIAAREFILKMFVDLNPDADKIIYSHFTCATDTENIRFVFAAVKDTILQHNLKYIGLC
modifications: C. elegans
B2: cGαq/z9: C. elegans Gαq with Gαz portion of the C-terminal tail extended to 9 amino acids (SEQ ID NO: 2) (protein)
chain: B1 chain with H347N
modifications: C. elegans

Tests used:
Test in all cases: Calcium mobilization (FLIPR, Fluo-3) in transfected COS-7 cells
Format in all cases: cell-based
[1] = biological target: h D5 (Homo sapiens, UniProt P21918); settings: h D5 + chimera in COS-7; agonist DA, max 100 μM
Summary of the method: (§1)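 First, COS-7 cells receive GPCR and chimeric G protein cDNA by DEAE-dextran transfection. Agonist responses are finally recorded by FLIPR for 3 min at room temperature.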

[2] = biological target: T4, h NPFF1 (Homo sapiens, UniProt Q9GZQ6); settings: h NPFF1 + chimera in COS-7; agonist NPFF, max 10 μM
T4 construct: expressed in transfected cells; host or cells: COS-7
Summary of the method: as §1

[3] = biological target: h D3 (Homo sapiens, UniProt P35462); settings: h D3 + chimera in COS-7; agonist DA, max 100 μM
Summary of the method: as §1

[4] = biological target: T1, r GALR2; settings: r GALR2 + chimera in COS-7; agonist GAL, max 10 μM
Summary of the method: as §1

[5] = biological target: T2, h α2A adr; settings: h α2A adr + chimera in COS-7; agonist NE, max 100 μM
Summary of the method: as §1

[6] = biological target: T3, h α1A adr; settings: h α1A adr + chimera in COS-7; agonist NE, max 100 μM
Summary of the method: as §1

[7] = biological target: h 5HT1E (Homo sapiens, UniProt P28566); settings: h 5HT1E + chimera in COS-7; agonist 5HT, max 100 μM
Summary of the method: as §1

[8] = biological target: h 5HT1B (Homo sapiens, UniProt P28222); settings: h 5HT1B + chimera in COS-7; agonist 5HT, max 100 μM
Summary of the method: as §1

h 5HT1E, sequence (P28566 whole entry): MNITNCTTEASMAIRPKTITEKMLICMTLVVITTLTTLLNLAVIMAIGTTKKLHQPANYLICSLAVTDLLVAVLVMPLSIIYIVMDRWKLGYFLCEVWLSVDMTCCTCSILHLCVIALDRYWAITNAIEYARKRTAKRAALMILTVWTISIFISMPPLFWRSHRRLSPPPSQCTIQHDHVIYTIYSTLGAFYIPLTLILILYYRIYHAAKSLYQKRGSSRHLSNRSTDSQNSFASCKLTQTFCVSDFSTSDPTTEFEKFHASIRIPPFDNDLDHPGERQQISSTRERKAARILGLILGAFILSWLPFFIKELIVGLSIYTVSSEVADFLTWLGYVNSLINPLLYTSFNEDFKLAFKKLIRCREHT
h 5HT1B, sequence (P28222 whole entry): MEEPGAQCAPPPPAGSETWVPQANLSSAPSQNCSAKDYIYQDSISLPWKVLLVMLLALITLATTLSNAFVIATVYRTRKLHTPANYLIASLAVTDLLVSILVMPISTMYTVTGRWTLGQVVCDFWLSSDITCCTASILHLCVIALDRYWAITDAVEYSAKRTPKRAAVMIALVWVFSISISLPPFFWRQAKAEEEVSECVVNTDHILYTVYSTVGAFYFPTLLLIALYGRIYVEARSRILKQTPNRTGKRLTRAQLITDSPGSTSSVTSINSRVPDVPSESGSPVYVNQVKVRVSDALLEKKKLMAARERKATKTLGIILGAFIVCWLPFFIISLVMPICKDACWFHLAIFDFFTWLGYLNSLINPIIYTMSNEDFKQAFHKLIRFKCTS
h D3, sequence (P35462 whole entry): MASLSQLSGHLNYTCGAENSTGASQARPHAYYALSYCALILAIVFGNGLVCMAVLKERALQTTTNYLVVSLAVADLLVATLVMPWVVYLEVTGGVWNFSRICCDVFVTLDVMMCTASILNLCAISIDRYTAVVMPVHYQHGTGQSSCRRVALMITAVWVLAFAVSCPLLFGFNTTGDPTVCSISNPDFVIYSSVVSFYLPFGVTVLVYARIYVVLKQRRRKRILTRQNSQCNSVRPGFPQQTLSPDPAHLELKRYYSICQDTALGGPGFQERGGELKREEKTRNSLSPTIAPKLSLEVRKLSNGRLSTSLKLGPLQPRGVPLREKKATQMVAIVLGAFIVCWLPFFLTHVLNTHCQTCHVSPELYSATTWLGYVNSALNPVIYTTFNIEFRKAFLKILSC
T4 sequence (Q9GZQ6 whole entry): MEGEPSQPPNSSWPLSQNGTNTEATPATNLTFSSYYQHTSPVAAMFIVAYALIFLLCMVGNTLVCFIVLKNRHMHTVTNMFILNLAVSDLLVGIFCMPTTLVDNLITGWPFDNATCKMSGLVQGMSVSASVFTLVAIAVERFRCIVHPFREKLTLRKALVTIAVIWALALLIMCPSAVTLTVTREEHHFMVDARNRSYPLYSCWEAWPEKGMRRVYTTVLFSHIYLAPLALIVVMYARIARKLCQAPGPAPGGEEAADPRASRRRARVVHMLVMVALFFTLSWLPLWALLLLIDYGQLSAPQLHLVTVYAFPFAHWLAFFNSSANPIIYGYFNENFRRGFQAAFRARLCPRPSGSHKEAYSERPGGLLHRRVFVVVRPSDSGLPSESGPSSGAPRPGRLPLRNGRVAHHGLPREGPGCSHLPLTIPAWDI
h D5, sequence (P21918 whole entry): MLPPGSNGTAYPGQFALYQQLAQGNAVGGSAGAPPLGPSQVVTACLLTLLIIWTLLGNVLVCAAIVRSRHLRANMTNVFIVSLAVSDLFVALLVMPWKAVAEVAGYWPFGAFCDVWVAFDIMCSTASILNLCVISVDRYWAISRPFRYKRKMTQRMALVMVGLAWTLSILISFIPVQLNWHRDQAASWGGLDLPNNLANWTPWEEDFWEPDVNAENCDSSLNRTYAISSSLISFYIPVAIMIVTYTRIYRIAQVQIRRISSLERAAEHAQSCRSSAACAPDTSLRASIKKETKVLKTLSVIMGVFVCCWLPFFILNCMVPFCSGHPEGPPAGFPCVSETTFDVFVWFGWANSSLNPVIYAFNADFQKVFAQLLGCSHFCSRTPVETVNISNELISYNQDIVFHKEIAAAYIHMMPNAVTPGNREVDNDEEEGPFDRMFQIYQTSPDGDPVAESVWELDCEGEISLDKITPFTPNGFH

Row | Molecule | MAXIMAL SIGNAL (FLUORESCENCE UNITS) [1] | MAXIMAL SIGNAL (FLUORESCENCE UNITS) [2] | MAXIMAL SIGNAL (FLUORESCENCE UNITS) [3] | MAXIMAL SIGNAL (FLUORESCENCE UNITS) [4] | MAXIMAL SIGNAL (FLUORESCENCE UNITS) [5] | MAXIMAL SIGNAL (FLUORESCENCE UNITS) [6] | MAXIMAL SIGNAL (FLUORESCENCE UNITS) [7] | MAXIMAL SIGNAL (FLUORESCENCE UNITS) [8]
1 | B1 | 657 fluorescence units | 6593 fluorescence units | 0 fluorescence units | 4198 fluorescence units | 7575 fluorescence units | 9816 fluorescence units | 229 fluorescence units | 929 fluorescence units
2 | B2 | 797 fluorescence units | 2966 fluorescence units | 121 fluorescence units | 4470 fluorescence units | 3040 fluorescence units | 6597 fluorescence units | 238 fluorescence units | 1217 fluorescence units
